How the values were obtained:
HGF-His tag = target: T1, HGF-His tag (UniProt P14210 32-728); assay: direct bind ELISA (C-term VD)
T1 construct: Bought antigen coated on the ELISA plate; not shown: His tag

VEGF 1-165 aa = target: T2, VEGF 1-165 aa (UniProt P15692 27-191); assay: direct bind ELISA (N-term VD);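 also: ELISA screen of antibodies for binding to plate-immobilized target antigen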
T2 construct: Bought antigen coated on the ELISA plate

[1] = target: VEGF (VEGF 1-165 aa, R&D Systems 293-VE-010) (UniProt P15692 27-191); assay: Direct bind ELISA, VEGF coated on plate;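 also: ELISA screening of antibodies for binding to the plate-coated target antigen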
VEGF (VEGF 1-165 aa, R&D Systems 293-VE-010), sequence (P15692 other isoform, or with tags, fused parts or gaps limits assumed): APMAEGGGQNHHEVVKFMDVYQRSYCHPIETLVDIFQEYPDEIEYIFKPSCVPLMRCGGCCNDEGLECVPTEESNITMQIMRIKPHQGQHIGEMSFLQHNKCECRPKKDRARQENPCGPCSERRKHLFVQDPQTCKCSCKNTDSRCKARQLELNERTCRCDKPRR

T1 sequence (P14210 32-728 limits assumed): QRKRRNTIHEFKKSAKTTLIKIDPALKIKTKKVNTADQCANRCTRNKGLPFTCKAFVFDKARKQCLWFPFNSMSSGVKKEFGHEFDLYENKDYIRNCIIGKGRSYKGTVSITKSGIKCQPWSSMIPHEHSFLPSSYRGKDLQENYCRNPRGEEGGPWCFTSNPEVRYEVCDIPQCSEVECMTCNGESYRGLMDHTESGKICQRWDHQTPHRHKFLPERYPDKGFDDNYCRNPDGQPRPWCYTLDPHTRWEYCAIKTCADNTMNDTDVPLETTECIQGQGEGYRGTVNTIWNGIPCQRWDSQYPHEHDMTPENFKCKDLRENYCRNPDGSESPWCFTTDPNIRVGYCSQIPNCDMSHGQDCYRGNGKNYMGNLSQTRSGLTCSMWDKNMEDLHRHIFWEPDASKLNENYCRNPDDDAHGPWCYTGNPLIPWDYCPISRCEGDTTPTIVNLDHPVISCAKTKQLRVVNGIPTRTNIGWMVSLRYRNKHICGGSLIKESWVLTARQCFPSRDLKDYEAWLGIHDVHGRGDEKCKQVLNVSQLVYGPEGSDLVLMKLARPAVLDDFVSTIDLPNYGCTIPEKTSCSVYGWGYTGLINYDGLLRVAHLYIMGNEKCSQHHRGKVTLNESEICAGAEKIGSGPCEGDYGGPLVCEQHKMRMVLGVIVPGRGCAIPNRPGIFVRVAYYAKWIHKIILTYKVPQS
T2 sequence (P15692 other isoform, or with tags, fused parts or gaps limits assumed): as the sequence (P15692 other isoform, or with tags, fused parts or gaps limits assumed) above

B1: DVD642 (bispecific antibody, human IgG1, kappa)
heavy: not shown
light: DIQMTQSPSSLSASVGDRVTITCSASQDISNYLNWYQQKPGKAPKVLIYFTSSLHSGVPSRFSGSGSGTDFTLTISSLQPEDFATYYCQQYSTVPWTFGQGTKVEIKRTVAAPSVFIFPPDIQMTQSPSSVSASVGDRVTITCRASQGISSWLAWYQQKPGKAPNLLIYEASSLQSGVPSRFGGSGSGTDFTLTISSLQPEDFATYYCQQANGFPWTFGQGTKVEIKRTVAAPSVFIFPPSDEQLKSGTASVVCLLNNFYPREAKVQWKVDNALQSGNSQESVTEQDSKDSTYSLSSTLTLSKADYEKHKVYACEVTHQGLSSPVTKSFNRGEC
notes: DVD-Ig; HC linker long, LC linker long; vectors V1/V2
B1 gave an EC50 (HGF-His tag) of 0.87 nM and an EC50 (VEGF 1-165 aa) of 6.35 nM.

B2: DVD644 (bispecific antibody, human IgG1, kappa)
heavy: not shown
light: DIQMTQSPSSLSASVGDRVTITCRASQDVSTAVAWYQQKPGKAPKLLIYSASFLYSGVPSRFSGSGSGTDFTLTISSLQPEDFATYYCQQSYTTPPTFGQGTKVEIKRTVAAPSVFIFPPDIQMTQSPSSVSASVGDRVTITCRASQGISSWLAWYQQKPGKAPNLLIYEASSLQSGVPSRFGGSGSGTDFTLTISSLQPEDFATYYCQQANGFPWTFGQGTKVEIKRTVAAPSVFIFPPSDEQLKSGTASVVCLLNNFYPREAKVQWKVDNALQSGNSQESVTEQDSKDSTYSLSSTLTLSKADYEKHKVYACEVTHQGLSSPVTKSFNRGEC
notes: as for B1
For B2, the EC50 (HGF-His tag) was 0.29 nM and the EC50 (VEGF 1-165 aa) was 5.31 nM.

B3: DVD646 (bispecific antibody, human IgG1, kappa)
heavy: not shown
light: DIQMTQSPSSLSASVGDRVTITCRASQVIRRSLAWYQQKPGKAPKLLIYAASNLASGVPSRFSGSGSGTDFTLTISSLQPEDFATYYCQQSNTSPLTFGQGTKVEIKRTVAAPSVFIFPPDIQMTQSPSSVSASVGDRVTITCRASQGISSWLAWYQQKPGKAPNLLIYEASSLQSGVPSRFGGSGSGTDFTLTISSLQPEDFATYYCQQANGFPWTFGQGTKVEIKRTVAAPSVFIFPPSDEQLKSGTASVVCLLNNFYPREAKVQWKVDNALQSGNSQESVTEQDSKDSTYSLSSTLTLSKADYEKHKVYACEVTHQGLSSPVTKSFNRGEC
notes: DVD-Ig; N-term VD AB071 (VEGF), C-term VD AB012 (HGF); HC linker long, LC linker long; vectors V1/V2
In the case of B3, the EC50 (HGF-His tag) is reported as 0.49 nM and the EC50 (VEGF 1-165 aa) is reported as 30.7 nM.

B4: DVD462 (bispecific antibody, IgG1)
VH: EVQLVESGGGLVQPGGSLRLSCAASGFTISDYWIHWVRQAPGKGLEWVAGITPAGGYTYYADSVKGRFTISADTSKNTAYLQMNSLRAEDTAVYYCARFVFFLPYAMDYWGQGTLVTVSSASTKGPQVQLVQSGAEVKKPGASVKISCKASGYSFTAYYIHWVKQAPGQGLEWIGYISSYNGATNYNQKFKGRVTFTTDTSTSTAYMELRSLRSDDTAVYYCARDYDYDVGMDYWGQGTLVTVSS
VL: DIQMTQSPSSLSASVGDRVTITCRASQDVSTAVAWYQQKPGKAPKLLIYSASFLYSGVPSRFSGSGSGTDFTLTISSLQPEDFATYYCQQSYTTPPTFGQGTKVEIKRTVAAPSVFIFPPDIVMTQSPDSLAVSLGERATISCRASESVDNYGISFMKWFQQKPGQPPKLLIYAASNQGSGVPDRFSGSGSGTDFTLTISSLQAEDVAVYYCQQSKEVPWTFGGGTKVEIKR
notes: HC linker short, LC linker long; also called DVD462H; DVD462L
In the case of B4, the EC50 [1] is reported as 8 nM.

B5: DVD524 (bispecific antibody, IgG1)
VH: EVQLVESGGGLVQPGGSLRLSCAASGYTFTNYGMNWVRQAPGKGLEWVGWINTYTGEPTYAADFKRRFTFSLDTSKSTAYLQMNSLRAEDTAVYYCAKYPHYYGSSHWYFDVWGQGTLVTVSSASTKGPSVFPLAPEVQLQQSGPELEKPGASVKISCKASGYSFTGYNMNWVKQSNGKSLEWIGNIDPYFGGTNYNQKFKGKATLTVDKSSSTAYMQLKSLTSEDSAVYYCARNYDYDGGCFDYWGQGTTLTVSS
VL: DIQMTQSPSSLSASVGDRVTITCSASQDISNYLNWYQQKPGKAPKVLIYFTSSLHSGVPSRFSGSGSGTDFTLTISSLQPEDFATYYCQQYSTVPWTFGQGTKVEIKRTVAAPQAVVTQESALTTSPGETVTLTCRSSTGAVTTSNYANWVQEKPDHLFTGLIGGTNNRAPGVPARFSGSLIGDKAALTITGAQTEDEAIYFCALWYSNHWVFGGGTKLTVLG
notes: HC linker long, LC linker short; also called DVD524H; DVD524L
Work on B5 yielded an EC50 [1] of 0.3 nM.

B6: DVD515 (bispecific antibody, IgG1)
VH: EVQLQQSGPELEKPGASVKISCKASGYSFTGYNMNWVKQSNGKSLEWIGNIDPYFGGTNYNQKFKGKATLTVDKSSSTAYMQLKSLTSEDSAVYYCARNYDYDGGCFDYWGQGTTLTVSSASTKGPEVQLVESGGGLVQPGGSLRLSCAASGFTINASWIHWVRQAPGKGLEWVGAIYPYSGYTNYADSVKGRFTISADTSKNTAYLQMNSLRAEDTAVYYCARWGHSTSPWAMDYWGQGTLVTVSS
VL: QAVVTQESALTTSPGETVTLTCRSSTGAVTTSNYANWVQEKPDHLFTGLIGGTNNRAPGVPARFSGSLIGDKAALTITGAQTEDEAIYFCALWYSNHWVFGGGTKLTVLGQPKAAPDIQMTQSPSSLSASVGDRVTITCRASQVIRRSLAWYQQKPGKAPKLLIYAASNLASGVPSRFSGSGSGTDFTLTISSLQPEDFATYYCQQSNTSPLTFGQGTKVEIKR
notes: DVD-Ig, outer AB073 / inner AB071; HC linker short, LC linker short; also called DVD515H; DVD515L
B6 gave an EC50 [1] of 3020 nM.

B7: DVD516 (bispecific antibody, IgG1)
VH: EVQLVESGGGLVQPGGSLRLSCAASGFTINASWIHWVRQAPGKGLEWVGAIYPYSGYTNYADSVKGRFTISADTSKNTAYLQMNSLRAEDTAVYYCARWGHSTSPWAMDYWGQGTLVTVSSASTKGPEVQLQQSGPELEKPGASVKISCKASGYSFTGYNMNWVKQSNGKSLEWIGNIDPYFGGTNYNQKFKGKATLTVDKSSSTAYMQLKSLTSEDSAVYYCARNYDYDGGCFDYWGQGTTLTVSS
VL: DIQMTQSPSSLSASVGDRVTITCRASQVIRRSLAWYQQKPGKAPKLLIYAASNLASGVPSRFSGSGSGTDFTLTISSLQPEDFATYYCQQSNTSPLTFGQGTKVEIKRTVAAPQAVVTQESALTTSPGETVTLTCRSSTGAVTTSNYANWVQEKPDHLFTGLIGGTNNRAPGVPARFSGSLIGDKAALTITGAQTEDEAIYFCALWYSNHWVFGGGTKLTVLG
notes: DVD-Ig, outer AB071 / inner AB073; HC linker short, LC linker short; also called DVD516H; DVD516L
Work on B7 yielded an EC50 [1] of 24.6 nM.

B8: DVD521 (bispecific antibody, IgG1)
VH: EVQLQQSGPELEKPGASVKISCKASGYSFTGYNMNWVKQSNGKSLEWIGNIDPYFGGTNYNQKFKGKATLTVDKSSSTAYMQLKSLTSEDSAVYYCARNYDYDGGCFDYWGQGTTLTVSSASTKGPSVFPLAPEVQLVESGGGLVQPGGSLRLSCAASGFTINASWIHWVRQAPGKGLEWVGAIYPYSGYTNYADSVKGRFTISADTSKNTAYLQMNSLRAEDTAVYYCARWGHSTSPWAMDYWGQGTLVTVSS
VL: QAVVTQESALTTSPGETVTLTCRSSTGAVTTSNYANWVQEKPDHLFTGLIGGTNNRAPGVPARFSGSLIGDKAALTITGAQTEDEAIYFCALWYSNHWVFGGGTKLTVLGQPKAAPSVTLFPPDIQMTQSPSSLSASVGDRVTITCRASQVIRRSLAWYQQKPGKAPKLLIYAASNLASGVPSRFSGSGSGTDFTLTISSLQPEDFATYYCQQSNTSPLTFGQGTKVEIKR
notes: DVD-Ig, outer AB073 / inner AB071; HC linker long, LC linker long; also called DVD521H; DVD521L
B8 showed an EC50 [1] of 655 nM.

B9: DVD522 (bispecific antibody, IgG1)
VH: EVQLVESGGGLVQPGGSLRLSCAASGFTINASWIHWVRQAPGKGLEWVGAIYPYSGYTNYADSVKGRFTISADTSKNTAYLQMNSLRAEDTAVYYCARWGHSTSPWAMDYWGQGTLVTVSSASTKGPSVFPLAPEVQLQQSGPELEKPGASVKISCKASGYSFTGYNMNWVKQSNGKSLEWIGNIDPYFGGTNYNQKFKGKATLTVDKSSSTAYMQLKSLTSEDSAVYYCARNYDYDGGCFDYWGQGTTLTVSS
VL: DIQMTQSPSSLSASVGDRVTITCRASQVIRRSLAWYQQKPGKAPKLLIYAASNLASGVPSRFSGSGSGTDFTLTISSLQPEDFATYYCQQSNTSPLTFGQGTKVEIKRTVAAPSVFIFPPQAVVTQESALTTSPGETVTLTCRSSTGAVTTSNYANWVQEKPDHLFTGLIGGTNNRAPGVPARFSGSLIGDKAALTITGAQTEDEAIYFCALWYSNHWVFGGGTKLTVLG
notes: DVD-Ig, outer AB071 / inner AB073; HC linker long, LC linker long; also called DVD522H; DVD522L
Work on B9 yielded an EC50 [1] of 23.5 nM.

B10: DVD527 (bispecific antibody, IgG1)
VH: EVQLQQSGPELEKPGASVKISCKASGYSFTGYNMNWVKQSNGKSLEWIGNIDPYFGGTNYNQKFKGKATLTVDKSSSTAYMQLKSLTSEDSAVYYCARNYDYDGGCFDYWGQGTTLTVSSASTKGPSVFPLAPEVQLVESGGGLVQPGGSLRLSCAASGFTINASWIHWVRQAPGKGLEWVGAIYPYSGYTNYADSVKGRFTISADTSKNTAYLQMNSLRAEDTAVYYCARWGHSTSPWAMDYWGQGTLVTVSS
VL: QAVVTQESALTTSPGETVTLTCRSSTGAVTTSNYANWVQEKPDHLFTGLIGGTNNRAPGVPARFSGSLIGDKAALTITGAQTEDEAIYFCALWYSNHWVFGGGTKLTVLGQPKAAPDIQMTQSPSSLSASVGDRVTITCRASQVIRRSLAWYQQKPGKAPKLLIYAASNLASGVPSRFSGSGSGTDFTLTISSLQPEDFATYYCQQSNTSPLTFGQGTKVEIKR
notes: DVD-Ig, outer AB073 / inner AB071; HC linker long, LC linker short; also called DVD527H; DVD527L
In the case of B10, the EC50 [1] is reported as 2380 nM.

B11: DVD528 (bispecific antibody, IgG1)
VH: EVQLVESGGGLVQPGGSLRLSCAASGFTINASWIHWVRQAPGKGLEWVGAIYPYSGYTNYADSVKGRFTISADTSKNTAYLQMNSLRAEDTAVYYCARWGHSTSPWAMDYWGQGTLVTVSSASTKGPSVFPLAPEVQLQQSGPELEKPGASVKISCKASGYSFTGYNMNWVKQSNGKSLEWIGNIDPYFGGTNYNQKFKGKATLTVDKSSSTAYMQLKSLTSEDSAVYYCARNYDYDGGCFDYWGQGTTLTVSS
VL: DIQMTQSPSSLSASVGDRVTITCRASQVIRRSLAWYQQKPGKAPKLLIYAASNLASGVPSRFSGSGSGTDFTLTISSLQPEDFATYYCQQSNTSPLTFGQGTKVEIKRTVAAPQAVVTQESALTTSPGETVTLTCRSSTGAVTTSNYANWVQEKPDHLFTGLIGGTNNRAPGVPARFSGSLIGDKAALTITGAQTEDEAIYFCALWYSNHWVFGGGTKLTVLG
notes: DVD-Ig, outer AB071 / inner AB073; HC linker long, LC linker short; also called DVD528H; DVD528L
B11 showed an EC50 [1] of 27.7 nM.

B12: DVD534 (bispecific antibody, IgG1)
VH: EVQLVESGGGLVQPGGSLRLSCAASGFTINASWIHWVRQAPGKGLEWVGAIYPYSGYTNYADSVKGRFTISADTSKNTAYLQMNSLRAEDTAVYYCARWGHSTSPWAMDYWGQGTLVTVSSASTKGPEVQLQQSGPELEKPGASVKISCKASGYSFTGYNMNWVKQSNGKSLEWIGNIDPYFGGTNYNQKFKGKATLTVDKSSSTAYMQLKSLTSEDSAVYYCARNYDYDGGCFDYWGQGTTLTVSS
VL: DIQMTQSPSSLSASVGDRVTITCRASQVIRRSLAWYQQKPGKAPKLLIYAASNLASGVPSRFSGSGSGTDFTLTISSLQPEDFATYYCQQSNTSPLTFGQGTKVEIKRTVAAPSVFIFPPQAVVTQESALTTSPGETVTLTCRSSTGAVTTSNYANWVQEKPDHLFTGLIGGTNNRAPGVPARFSGSLIGDKAALTITGAQTEDEAIYFCALWYSNHWVFGGGTKLTVLG
notes: DVD-Ig, outer AB071 / inner AB073; HC linker short, LC linker long; also called DVD534H; DVD534L
B12 showed an EC50 [1] of 23.6 nM.

— patent US20100260668A1 (published 2010)
